Among the data in patent US6107048 are IC50 and IC60 values, retold here.

The target in assay [1] is monoclonal antibody 8H10. As to the kind of experiment: competition ELISA: peptide inhibits binding of 8H10 to recombinant Rab11.
The target of assay [2] is monoclonal antibody 12C3. The experiment in a line: competition ELISA: peptide inhibits binding of 12C3 to recombinant Rab25. For orientation: An ELISA detects its analyte on a solid surface through an enzyme-linked reagent.

By IC50 is commonly meant the concentration that gives 50% inhibition. With QKQMSDRRENDMSPSNNVVPIHVPPTTENKPKVQ [Rab11 C-terminal variable region synthetic peptide], the IC50 in assay [1] came out at 1 µg/mL.
Regarding KVSKQIQNSPRSNAIALGSAQAGQEPGPGQKR [Rab25 C-terminal variable region synthetic peptide], the IC60 in assay [2] amounted to 1 µg/mL.
